B1: NECAB1 (parent)
chain: NLDTEELCEYFSQHLGEYENVLAA

Variants of: B1
Test: protein stability index of a GFP-peptide fusion (GPS, HEK-293T) (PSI 1-6); higher = more stable
Settings: c terminus: a fixed tail appended
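Note: lentivirally expressed fusions sorted by FACS into six bins by GFP to DsRed ratio, PSI derived from sequencing read proportions per bin multiplied by bin number.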

Going from NLDDEELCEYFSQHLGEYENVLAA [T4D] to NLDTEELCEYFSQHLGEYDNVLAA [E19D], the protein stability index falls from 4.33 to 3.98.

Going from NLNTEELCEYFSQHLGEYENVLAA [D3N] to NLDTEELCEYFSSHLGEYENVLAA [Q13S], the protein stability index rises from 1.64 to 2.87.

Going from NLDTEELCEYFFQHLGEYENVLAA [S12F] to NLDTEELPEYFSQHLGEYENVLAA [C8P], the protein stability index rises from 3.17 to 4.44.

Compared with NLDTEELCEYFSQHLGGYENVLAA [E17G], NLDTEELCEYFSQHLGEYENVLAE [A24E] is higher in protein stability index: 2.81 for the first, 3.53 for the second.

Going from NLDTEELCEYHSQHLGEYENVLAA [F11H] to NLDTEELCECFSQHLGEYENVLAA [Y10C], the protein stability index rises from 4.26 to 4.46.
